# Experimental data reported in patent publication US20140322736.
# Experiments:
# [1] = system: mouse mutant recombinant prethrombin-2
# [2] = system: human mutant recombinant prethrombin-2
Substance,cleavage of the proenzyme [1],protease activity (fluorescence of the cleaved fluorogenic substrate (p-tosyl-Gly-Pro-Arg)2-rhodamine 110 over time) [2],protease activity (fluorescence of the cleaved fluorogenic substrate (p-tosyl-Gly-Pro-Arg)2-rhodamine 110 over time) [1]
"α-thrombin immobilized on agarose (Thrombin CleanCleave Kit, Sigma-Aldrich)",Mouse mutant prethrombin-2 was cleaved using Thrombin CleanCleave™ Kit,,
wild type human α-thrombin (Sigma Aldrich),,"in the presence of WT human α-thrombin, the protease activity increased considerably with time (FIG. 4, curves a, b), compared to the samples where only WT α-thrombin was added","in the presence of WT human α-thrombin, the protease activity increased considerably with time (FIG. 4, curves a, b), compared to the samples where only WT α-thrombin was added"
